Test results as given in article PMC4565748 (2015).

Target: C3b (Homo sapiens, UniProt P01024)
Test: AlphaAssay

C3b, sequence (P01024 23-667, chain 1 of 2): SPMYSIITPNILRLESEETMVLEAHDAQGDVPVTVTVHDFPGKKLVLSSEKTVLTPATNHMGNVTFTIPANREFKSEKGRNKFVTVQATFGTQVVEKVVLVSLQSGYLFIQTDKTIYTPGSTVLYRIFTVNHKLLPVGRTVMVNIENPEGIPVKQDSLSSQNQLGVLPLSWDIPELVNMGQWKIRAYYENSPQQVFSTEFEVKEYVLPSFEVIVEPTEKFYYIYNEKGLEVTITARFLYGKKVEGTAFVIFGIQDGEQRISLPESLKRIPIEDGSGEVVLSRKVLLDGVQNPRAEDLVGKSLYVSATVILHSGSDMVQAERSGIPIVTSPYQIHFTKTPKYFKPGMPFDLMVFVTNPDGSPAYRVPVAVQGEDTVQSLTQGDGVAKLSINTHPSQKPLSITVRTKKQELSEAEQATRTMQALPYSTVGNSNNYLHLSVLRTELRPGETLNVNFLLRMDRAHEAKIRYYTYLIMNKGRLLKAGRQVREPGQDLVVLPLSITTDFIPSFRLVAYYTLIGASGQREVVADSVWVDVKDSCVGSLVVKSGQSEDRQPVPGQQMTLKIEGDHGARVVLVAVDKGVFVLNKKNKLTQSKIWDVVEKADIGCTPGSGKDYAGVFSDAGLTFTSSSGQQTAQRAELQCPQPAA
C3b, sequence (P01024 749-1663, chain 2 of 2): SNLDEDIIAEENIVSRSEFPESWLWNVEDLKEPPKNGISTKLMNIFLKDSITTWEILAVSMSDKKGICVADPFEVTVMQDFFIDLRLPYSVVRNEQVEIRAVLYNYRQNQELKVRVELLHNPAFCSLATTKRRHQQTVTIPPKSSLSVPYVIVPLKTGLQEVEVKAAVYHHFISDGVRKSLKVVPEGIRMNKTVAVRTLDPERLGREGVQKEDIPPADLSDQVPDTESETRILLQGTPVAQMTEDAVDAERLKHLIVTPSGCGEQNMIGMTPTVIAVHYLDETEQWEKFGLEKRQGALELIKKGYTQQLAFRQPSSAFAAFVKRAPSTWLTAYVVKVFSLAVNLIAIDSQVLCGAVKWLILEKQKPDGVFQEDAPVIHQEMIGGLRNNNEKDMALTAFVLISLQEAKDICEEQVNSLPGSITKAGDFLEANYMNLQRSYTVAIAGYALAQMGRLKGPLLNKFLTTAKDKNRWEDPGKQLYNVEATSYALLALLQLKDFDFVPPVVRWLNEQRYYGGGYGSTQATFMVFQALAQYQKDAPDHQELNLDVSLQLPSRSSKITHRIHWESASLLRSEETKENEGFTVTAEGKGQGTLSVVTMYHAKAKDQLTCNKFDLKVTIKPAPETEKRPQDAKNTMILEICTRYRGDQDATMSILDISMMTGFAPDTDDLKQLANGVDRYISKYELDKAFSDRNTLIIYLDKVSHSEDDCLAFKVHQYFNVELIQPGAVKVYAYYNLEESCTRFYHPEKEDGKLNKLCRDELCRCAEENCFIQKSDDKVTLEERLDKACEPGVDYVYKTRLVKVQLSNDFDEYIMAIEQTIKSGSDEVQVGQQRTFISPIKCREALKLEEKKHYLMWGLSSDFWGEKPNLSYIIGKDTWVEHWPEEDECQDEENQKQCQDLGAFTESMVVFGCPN

B1: SCIN-A (protein)
chain: STSLPTSNEYQNEKLANELKSLLDELNVNELATGSLNTYYKRTIKISGQKAMYALKSKDFKKMSEAKYQLQKIYNEIDEALKSKY
For B1, the Kd was 74 nM.
